The record followed here is publication PMC11790958.

The data set has as its target condensin I tetramer lacking NCAPG (CIΔG) (Homo sapiens, UniProt O95347;Q9NTJ3;Q15003;Q15021 1-1197;1-1288;1-741;1-1401). Description: EMSA; 2.5 mM Mg2+; EMSA: 50 nM DNA, 20 mM HEPES pH 8, 150 mM KCl, 2.5 mM MgCl2, 10% glycerol, 1 mM DTT, on ice 20 min; 2% agarose, 0.5x TB. To be noted: protein: recombinant; tags: Strep; copies: 1;1;1;1; label: 5' Cy5 on reverse strand (S2); blunt.

Sequence of condensin I tetramer lacking NCAPG (CIΔG) (O95347 whole entry, stated change not applied, chain 1 of 4): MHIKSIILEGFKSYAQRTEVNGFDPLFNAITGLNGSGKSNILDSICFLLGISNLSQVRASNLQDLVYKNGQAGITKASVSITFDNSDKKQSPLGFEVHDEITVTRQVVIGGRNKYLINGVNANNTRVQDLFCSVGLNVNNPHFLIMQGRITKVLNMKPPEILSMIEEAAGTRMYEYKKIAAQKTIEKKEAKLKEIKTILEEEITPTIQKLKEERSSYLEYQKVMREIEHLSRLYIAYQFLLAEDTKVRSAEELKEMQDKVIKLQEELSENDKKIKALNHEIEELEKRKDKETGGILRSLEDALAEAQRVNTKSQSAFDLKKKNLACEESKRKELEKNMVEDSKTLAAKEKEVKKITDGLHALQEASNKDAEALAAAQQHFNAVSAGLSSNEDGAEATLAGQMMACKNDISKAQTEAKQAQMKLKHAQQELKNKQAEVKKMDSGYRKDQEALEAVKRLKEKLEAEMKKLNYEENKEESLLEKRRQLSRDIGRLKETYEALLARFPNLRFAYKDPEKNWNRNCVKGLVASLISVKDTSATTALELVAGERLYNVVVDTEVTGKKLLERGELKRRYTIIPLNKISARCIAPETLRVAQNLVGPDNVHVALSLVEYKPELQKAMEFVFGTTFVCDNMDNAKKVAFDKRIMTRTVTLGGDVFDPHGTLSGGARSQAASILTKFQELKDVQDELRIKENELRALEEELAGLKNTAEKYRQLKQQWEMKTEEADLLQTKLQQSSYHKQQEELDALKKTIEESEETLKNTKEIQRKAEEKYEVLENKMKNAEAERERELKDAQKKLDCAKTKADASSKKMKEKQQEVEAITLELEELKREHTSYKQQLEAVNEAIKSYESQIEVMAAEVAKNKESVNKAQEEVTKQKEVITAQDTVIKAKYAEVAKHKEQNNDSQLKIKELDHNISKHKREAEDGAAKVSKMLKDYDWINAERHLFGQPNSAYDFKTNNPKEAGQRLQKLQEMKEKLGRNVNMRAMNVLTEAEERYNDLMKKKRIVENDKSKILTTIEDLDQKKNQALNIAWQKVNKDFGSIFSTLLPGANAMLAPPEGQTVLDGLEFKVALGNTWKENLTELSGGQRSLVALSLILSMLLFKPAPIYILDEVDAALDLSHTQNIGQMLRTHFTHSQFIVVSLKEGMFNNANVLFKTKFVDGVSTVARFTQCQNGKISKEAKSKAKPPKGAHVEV
Sequence of condensin I tetramer lacking NCAPG (CIΔG) (Q9NTJ3 whole entry, stated change not applied, chain 2 of 4): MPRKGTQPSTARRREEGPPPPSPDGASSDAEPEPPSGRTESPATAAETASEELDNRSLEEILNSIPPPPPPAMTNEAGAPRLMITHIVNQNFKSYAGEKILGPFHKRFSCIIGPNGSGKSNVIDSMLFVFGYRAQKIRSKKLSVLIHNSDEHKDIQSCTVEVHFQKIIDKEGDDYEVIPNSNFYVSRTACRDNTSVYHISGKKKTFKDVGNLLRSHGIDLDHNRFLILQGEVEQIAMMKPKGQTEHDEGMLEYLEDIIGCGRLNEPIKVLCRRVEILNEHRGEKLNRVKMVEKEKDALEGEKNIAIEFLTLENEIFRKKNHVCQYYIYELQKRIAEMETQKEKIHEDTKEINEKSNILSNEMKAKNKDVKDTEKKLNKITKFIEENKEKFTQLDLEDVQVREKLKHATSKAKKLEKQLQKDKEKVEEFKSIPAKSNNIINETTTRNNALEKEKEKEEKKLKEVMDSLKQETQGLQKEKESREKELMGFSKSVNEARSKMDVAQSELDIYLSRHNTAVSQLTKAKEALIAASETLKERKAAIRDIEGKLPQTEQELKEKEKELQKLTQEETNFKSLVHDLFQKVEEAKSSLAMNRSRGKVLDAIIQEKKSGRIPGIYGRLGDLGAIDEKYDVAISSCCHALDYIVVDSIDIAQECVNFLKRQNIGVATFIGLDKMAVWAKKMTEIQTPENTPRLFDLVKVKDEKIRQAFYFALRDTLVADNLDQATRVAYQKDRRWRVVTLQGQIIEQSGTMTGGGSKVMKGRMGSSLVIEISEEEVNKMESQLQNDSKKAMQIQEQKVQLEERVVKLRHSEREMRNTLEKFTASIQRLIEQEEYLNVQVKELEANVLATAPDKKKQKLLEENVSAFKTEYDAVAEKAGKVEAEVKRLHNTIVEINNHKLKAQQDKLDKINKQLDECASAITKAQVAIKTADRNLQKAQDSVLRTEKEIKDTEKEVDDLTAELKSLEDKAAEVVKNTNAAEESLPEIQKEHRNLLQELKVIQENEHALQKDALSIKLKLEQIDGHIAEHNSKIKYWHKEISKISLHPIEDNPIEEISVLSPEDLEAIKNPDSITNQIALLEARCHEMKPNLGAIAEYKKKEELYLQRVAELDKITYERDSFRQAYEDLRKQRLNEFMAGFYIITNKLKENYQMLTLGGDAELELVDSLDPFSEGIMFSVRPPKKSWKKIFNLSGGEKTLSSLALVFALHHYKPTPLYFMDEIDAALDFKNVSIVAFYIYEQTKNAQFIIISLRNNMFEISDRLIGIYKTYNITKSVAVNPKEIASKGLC
Sequence of condensin I tetramer lacking NCAPG (CIΔG) (Q15003 whole entry, stated change not applied, chain 3 of 4): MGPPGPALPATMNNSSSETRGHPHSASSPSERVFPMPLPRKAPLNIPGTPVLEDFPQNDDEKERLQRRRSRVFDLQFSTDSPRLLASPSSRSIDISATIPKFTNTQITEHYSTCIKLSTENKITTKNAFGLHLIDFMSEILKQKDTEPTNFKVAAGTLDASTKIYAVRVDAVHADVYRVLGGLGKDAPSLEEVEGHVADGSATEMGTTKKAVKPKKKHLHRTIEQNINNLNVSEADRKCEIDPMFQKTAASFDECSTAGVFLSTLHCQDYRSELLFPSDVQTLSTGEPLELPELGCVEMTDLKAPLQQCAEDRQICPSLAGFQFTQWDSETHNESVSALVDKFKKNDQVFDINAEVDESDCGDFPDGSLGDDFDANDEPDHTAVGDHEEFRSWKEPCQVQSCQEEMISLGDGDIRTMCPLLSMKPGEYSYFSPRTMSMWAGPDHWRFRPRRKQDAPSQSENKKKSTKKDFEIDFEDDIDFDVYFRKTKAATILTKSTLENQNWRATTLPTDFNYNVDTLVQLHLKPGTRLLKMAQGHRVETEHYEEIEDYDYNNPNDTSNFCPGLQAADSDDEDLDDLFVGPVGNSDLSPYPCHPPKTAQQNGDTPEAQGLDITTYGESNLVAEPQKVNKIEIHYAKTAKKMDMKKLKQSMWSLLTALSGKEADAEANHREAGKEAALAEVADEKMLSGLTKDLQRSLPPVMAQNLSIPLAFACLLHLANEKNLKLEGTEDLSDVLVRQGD
Sequence of condensin I tetramer lacking NCAPG (CIΔG) (Q15021 whole entry, stated change not applied, chain 4 of 4): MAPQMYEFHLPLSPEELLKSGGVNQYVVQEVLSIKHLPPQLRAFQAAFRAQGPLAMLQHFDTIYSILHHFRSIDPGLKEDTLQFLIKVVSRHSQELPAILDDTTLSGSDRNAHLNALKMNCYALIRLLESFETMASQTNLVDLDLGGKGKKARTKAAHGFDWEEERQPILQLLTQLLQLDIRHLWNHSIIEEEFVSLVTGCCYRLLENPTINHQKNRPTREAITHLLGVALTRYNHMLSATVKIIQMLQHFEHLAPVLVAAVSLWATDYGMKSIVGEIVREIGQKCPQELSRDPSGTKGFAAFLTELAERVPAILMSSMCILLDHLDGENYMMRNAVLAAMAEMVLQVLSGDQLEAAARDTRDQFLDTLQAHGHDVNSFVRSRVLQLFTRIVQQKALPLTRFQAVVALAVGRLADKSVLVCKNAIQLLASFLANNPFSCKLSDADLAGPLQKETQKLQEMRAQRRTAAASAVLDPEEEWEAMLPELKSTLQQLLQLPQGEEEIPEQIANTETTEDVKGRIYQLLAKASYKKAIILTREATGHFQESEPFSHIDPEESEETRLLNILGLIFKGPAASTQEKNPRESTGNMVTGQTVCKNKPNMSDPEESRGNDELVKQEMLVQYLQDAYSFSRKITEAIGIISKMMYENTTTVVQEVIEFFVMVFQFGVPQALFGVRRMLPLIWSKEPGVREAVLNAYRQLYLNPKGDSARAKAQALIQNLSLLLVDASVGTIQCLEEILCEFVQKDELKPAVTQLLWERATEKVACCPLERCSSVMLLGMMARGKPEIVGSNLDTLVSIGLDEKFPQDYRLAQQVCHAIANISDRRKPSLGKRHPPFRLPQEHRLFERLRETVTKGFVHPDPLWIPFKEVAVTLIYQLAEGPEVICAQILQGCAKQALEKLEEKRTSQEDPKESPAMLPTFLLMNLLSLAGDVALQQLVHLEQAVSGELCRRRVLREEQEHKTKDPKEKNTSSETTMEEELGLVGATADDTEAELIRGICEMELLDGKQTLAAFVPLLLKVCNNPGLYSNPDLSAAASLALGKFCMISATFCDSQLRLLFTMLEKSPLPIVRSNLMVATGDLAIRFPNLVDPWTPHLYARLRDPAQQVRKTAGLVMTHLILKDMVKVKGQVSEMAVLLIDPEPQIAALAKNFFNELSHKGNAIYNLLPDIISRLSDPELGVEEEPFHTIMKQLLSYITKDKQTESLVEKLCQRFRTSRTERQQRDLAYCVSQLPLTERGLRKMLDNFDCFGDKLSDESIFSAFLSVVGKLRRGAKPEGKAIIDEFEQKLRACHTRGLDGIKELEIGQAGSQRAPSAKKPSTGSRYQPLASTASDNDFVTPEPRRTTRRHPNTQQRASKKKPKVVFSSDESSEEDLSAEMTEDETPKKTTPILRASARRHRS

B1: Cy5 50 bp dsDNA (dsDNA)
DNA 1: GGTGTGACAGGGTGTGACAGGGTGTGACAGGGTGTGACAGGGTGTGACAG
DNA 2: CTGTCACACCCTGTCACACCCTGTCACACCCTGTCACACCCTGTCACACC
As for B1, the binding signal was ~4 fold lower affinity than CI.
